Measurements as given in paper PMC4995099, “Drosophila Nanos acts as a molecular clamp that modulates the RNA-binding and repression activities of Pumilio”.
Values belong to the molecule of their own block, whether it stands above or below them.

What was measured:
[1] = biological target: T1, Drosophila Pum RNA-binding domain (amino acids 1091–1426), crystallisation construct (Drosophila melanogaster) (UniProt P25822)
T1 sequence: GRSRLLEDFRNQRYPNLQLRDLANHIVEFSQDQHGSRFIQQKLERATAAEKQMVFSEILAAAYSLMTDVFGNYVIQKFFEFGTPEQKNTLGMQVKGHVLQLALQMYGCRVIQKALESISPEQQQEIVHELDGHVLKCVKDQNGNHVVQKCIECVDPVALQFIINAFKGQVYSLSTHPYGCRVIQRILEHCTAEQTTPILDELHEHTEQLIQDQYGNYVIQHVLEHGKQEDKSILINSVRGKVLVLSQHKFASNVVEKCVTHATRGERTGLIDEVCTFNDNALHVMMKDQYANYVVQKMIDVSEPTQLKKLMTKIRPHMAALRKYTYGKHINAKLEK

Pum PUM-HD WT (EMSA) [2] = biological target: T2, Pum PUM-HD WT (EMSA) (UniProt P25822 1091-1426); test: EMSA; EMSA: 50 mM Tris-HCl pH 7.6, 150 mM NaCl, 2 mM DTT, 2 ug/mL BSA, 0.01% Igepal CA-630, 0.02% bromophenol blue, 20% glycerol, 3 h at 4 C; 1 nM Cy5 RNA or 0.3 nM 32P RNA; details: protein: recombinant; tags: N-terminal 3xFLAG; Halo-tag removed by TEV
T2 sequence: T1 sequence

[3] = biological target: T3, Pum RNA-binding domain (crystal) (UniProt P25822 1091-1426); test: X-ray crystallography; 1.14 A; EMSA: 50 mM Tris-HCl pH 7.6, 150 mM NaCl, 2 mM DTT, 2 ug/mL BSA, 0.01% Igepal CA-630, 0.02% bromophenol blue, 20% glycerol, 3 h at 4 C; 1 nM Cy5 RNA or 0.3 nM 32P RNA; details: protein: recombinant; tags: His6-SUMO removed by Ulp1
T3 sequence: T1 sequence

Pum PUM-HD WT (EMSA) [4] = biological target: T2, Pum PUM-HD WT (EMSA); test: EMSA; no stable binary complex; EMSA: 50 mM Tris-HCl pH 7.6, 150 mM NaCl, 2 mM DTT, 2 ug/mL BSA, 0.01% Igepal CA-630, 0.02% bromophenol blue, 20% glycerol, 3 h at 4 C; 1 nM Cy5 RNA or 0.3 nM 32P RNA; details: protein: recombinant; tags: N-terminal 3xFLAG; Halo-tag removed by TEV; label: 5' 32P
[5] = biological target: T4, Pum PUM-HD WT (EMSA);Nos ZC WT (EMSA) (Drosophila melanogaster?;Drosophila …, UniProt P25822;P25724 1091-1426;289-401, |); test: EMSA; 1 uM Nos ZC; Kd only in figure; EMSA: 50 mM Tris-HCl pH 7.6, 150 mM NaCl, 2 mM DTT, 2 ug/mL BSA, 0.01% Igepal CA-630, 0.02% bromophenol blue, 20% glycerol, 3 h at 4 C; 1 nM Cy5 RNA or 0.3 nM 32P RNA; details: protein: recombinant;recombinant, tags: N-terminal 3xFLAG, Halo-tag removed by TEV;C-terminal V5, copies: 1;1, label: 5' 32P
T4 sequence 1: T1 sequence
T4 sequence 2: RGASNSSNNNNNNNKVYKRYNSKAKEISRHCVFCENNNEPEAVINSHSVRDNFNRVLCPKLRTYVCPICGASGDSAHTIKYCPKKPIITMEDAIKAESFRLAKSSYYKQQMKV

[6] = biological target: T5, Pum RNA-binding domain (aa1091-1426) with N-terminal triple FLAG tag, EMSA construct (Drosophila melanogaster, UniProt P25822-1 1091-1426); test: EMSA, Nos binding to Pum–hb NRE2 RNA complex (100 nM Pum)
T5 chain: T1 sequence

Pum PUM-HD WT (EMSA) [7] = biological target: T2, Pum PUM-HD WT (EMSA); test: EMSA; N/D; EMSA: 50 mM Tris-HCl pH 7.6, 150 mM NaCl, 2 mM DTT, 2 ug/mL BSA, 0.01% Igepal CA-630, 0.02% bromophenol blue, 20% glycerol, 3 h at 4 C; 1 nM Cy5 RNA or 0.3 nM 32P RNA; details: protein: recombinant; tags: N-terminal 3xFLAG; Halo-tag removed by TEV; label: 5' 32P
[8] = biological target: T4, Pum PUM-HD WT (EMSA);Nos ZC WT (EMSA); test: EMSA; 1 uM Nos ZC; N/D; EMSA: 50 mM Tris-HCl pH 7.6, 150 mM NaCl, 2 mM DTT, 2 ug/mL BSA, 0.01% Igepal CA-630, 0.02% bromophenol blue, 20% glycerol, 3 h at 4 C; 1 nM Cy5 RNA or 0.3 nM 32P RNA; details: protein: recombinant;recombinant, tags: N-terminal 3xFLAG, Halo-tag removed by TEV;C-terminal V5, copies: 1;1, label: 5' 32P
Pum PUM-HD WT (EMSA) [9] = biological target: T2, Pum PUM-HD WT (EMSA); test: EMSA; no stable binding; EMSA: 50 mM Tris-HCl pH 7.6, 150 mM NaCl, 2 mM DTT, 2 ug/mL BSA, 0.01% Igepal CA-630, 0.02% bromophenol blue, 20% glycerol, 3 h at 4 C; 1 nM Cy5 RNA or 0.3 nM 32P RNA; details: protein: recombinant; tags: N-terminal 3xFLAG; Halo-tag removed by TEV; label: 5' 32P
[10] = biological target: T4, Pum PUM-HD WT (EMSA);Nos ZC WT (EMSA); test: EMSA; Pum titrated, 1 uM Nos ZC constant; EMSA: 50 mM Tris-HCl pH 7.6, 150 mM NaCl, 2 mM DTT, 2 ug/mL BSA, 0.01% Igepal CA-630, 0.02% bromophenol blue, 20% glycerol, 3 h at 4 C; 1 nM Cy5 RNA or 0.3 nM 32P RNA; details: protein: recombinant;recombinant, tags: N-terminal 3xFLAG, Halo-tag removed by TEV;C-terminal V5, copies: 1;1, label: 5' 32P
[11] = biological target: T6, Pum RNA-binding domain (crystal);Nos ZF domain (crystal) (Drosophila melanogaster?;Drosophila …, UniProt P25822;P25724 1091-1426;289-401, |); test: X-ray crystallography; 4.0 A; Zn2+; EMSA: 50 mM Tris-HCl pH 7.6, 150 mM NaCl, 2 mM DTT, 2 ug/mL BSA, 0.01% Igepal CA-630, 0.02% bromophenol blue, 20% glycerol, 3 h at 4 C; 1 nM Cy5 RNA or 0.3 nM 32P RNA; details: protein: recombinant;recombinant; tags: His6-SUMO removed by Ulp1;His6-SUMO removed by Ulp1; copies: 1;1
T6 sequence 1: T1 sequence
T6 sequence 2: T4 sequence 2

Pum PUM-HD WT (EMSA) [12] = biological target: T2, Pum PUM-HD WT (EMSA); test: EMSA; no stable complex, Pum up to 1 uM; EMSA: 50 mM Tris-HCl pH 7.6, 150 mM NaCl, 2 mM DTT, 2 ug/mL BSA, 0.01% Igepal CA-630, 0.02% bromophenol blue, 20% glycerol, 3 h at 4 C; 1 nM Cy5 RNA or 0.3 nM 32P RNA; details: protein: recombinant; tags: N-terminal 3xFLAG; Halo-tag removed by TEV; label: 5' 32P

- percent repression of the RnLuc WT hb 3´UTR reporter in D.mel-2 cells (endogenous Pum), against Halo-tag alone [1]: 29%
Molecule: Halo-Nos M378A (full-length) (natural protein)

- percent repression of the RnLuc WT hb 3´UTR reporter in D.mel-2 cells (endogenous Pum), against Halo-tag alone [1]: 14%
Molecule: Halo-Nos NZ (aa1-373) (domain or fragment)

- percent repression of the RnLuc WT hb 3´UTR reporter in D.mel-2 cells (endogenous Pum), against Halo-tag alone [1]: 46%
Molecule: Halo-Nos I376A (full-length) (natural protein)

- percent repression of the RnLuc WT hb 3´UTR reporter in D.mel-2 cells (endogenous Pum), against Halo-tag alone [1]: 60%
Molecule: Halo-Nos I382A (full-length) (natural protein)

Molecule: AAACUGUACAUAAGCC (ssRNA) [hb NRE2 -1C RNA]
- binding result (Pum PUM-HD WT (EMSA) [2]): binds

Molecule: UGUACAUA (ssRNA) [hb PRE2 RNA 8-nt]
- binding result [3]: binds

Molecule: UGAUUGUAGAUAUCUA (ssRNA) [bcd NRE RNA]
- binding result (Pum PUM-HD WT (EMSA) [4]): no binding
- binding result [5]: binds

- percent repression of the RnLuc WT hb 3´UTR reporter in D.mel-2 cells (endogenous Pum), against Halo-tag alone [1]: 43%
B1: Halo-Nos Δ383–393 (aa1-382 + 394–401) (natural protein)
chain: MFRSNLEGSGAAADNFSAFHARGGLNILGLQDMYLDTSGANSSATLSPPITPVTPDPSTSAQSTHFPFLADSAATANSLLMQRQYHYHLLLQQQQQLAMAQHQLALAASAAAASASHQQTDEIARSLKIFAQVTTGAAENAAGSMQDVMQEFATNGYASDDLGRMSYGSAPPQVQMPPQQQHQQQQGLHLPLGRNPAQLQTNGGNLMPIPLATHWLNNYREHLNNVWRNMSYIPAAPNTMGLQAQTAATVSTNLGVGMGLGLPVQGEQLRGASNSSNNNNNNNKVYKRYNSKAKEISRHCVFCENNNEPEAVINSHSVRDNFNRVLCPKLRTYVCPICGASGDSAHTIKYCPKKPIITMEDAIYYKQQMKV

- Kd [6]: 4.6 nM
B2: Nos ZC (aa289-401) with C-terminal V5 epitope, EMSA construct (domain or fragment)
chain: T4 sequence 2
modifications: two Zn2+ bound by the CCHC zinc fingers; C-terminal V5 epitope omitted

- percent repression of the RnLuc WT hb 3´UTR reporter in D.mel-2 cells (endogenous Pum), against Halo-tag alone [1]: 27%
B3: Halo-Nos Δ376–382 (aa1-375 + 383–401) (natural protein)
chain: MFRSNLEGSGAAADNFSAFHARGGLNILGLQDMYLDTSGANSSATLSPPITPVTPDPSTSAQSTHFPFLADSAATANSLLMQRQYHYHLLLQQQQQLAMAQHQLALAASAAAASASHQQTDEIARSLKIFAQVTTGAAENAAGSMQDVMQEFATNGYASDDLGRMSYGSAPPQVQMPPQQQHQQQQGLHLPLGRNPAQLQTNGGNLMPIPLATHWLNNYREHLNNVWRNMSYIPAAPNTMGLQAQTAATVSTNLGVGMGLGLPVQGEQLRGASNSSNNNNNNNKVYKRYNSKAKEISRHCVFCENNNEPEAVINSHSVRDNFNRVLCPKLRTYVCPICGASGDSAHTIKYCPKKPIKAESFRLAKSSYYKQQMKV

- percent repression of the RnLuc WT hb 3´UTR reporter in D.mel-2 cells (endogenous Pum), against Halo-tag alone [1]: 70%
B4: Halo-tagged, full-length Nos protein (NZC) (natural protein)
chain: MFRSNLEGSGAAADNFSAFHARGGLNILGLQDMYLDTSGANSSATLSPPITPVTPDPSTSAQSTHFPFLADSAATANSLLMQRQYHYHLLLQQQQQLAMAQHQLALAASAAAASASHQQTDEIARSLKIFAQVTTGAAENAAGSMQDVMQEFATNGYASDDLGRMSYGSAPPQVQMPPQQQHQQQQGLHLPLGRNPAQLQTNGGNLMPIPLATHWLNNYREHLNNVWRNMSYIPAAPNTMGLQAQTAATVSTNLGVGMGLGLPVQGEQLRGASNSSNNNNNNNKVYKRYNSKAKEISRHCVFCENNNEPEAVINSHSVRDNFNRVLCPKLRTYVCPICGASGDSAHTIKYCPKKPIITMEDAIKAESFRLAKSSYYKQQMKV

Molecule: AAAUACAACAUAAGCC (ssRNA) [hb NRE2 ACA RNA]
- binding result (Pum PUM-HD WT (EMSA) [7]): no binding
- binding result [8]: no binding

Molecule: AAAUUGGACAUAAGCC (ssRNA) [hb NRE2 +3G RNA]
- binding result (Pum PUM-HD WT (EMSA) [9]): no binding
- Kd [10]: 59.9 nM

Molecule: AACUUGUACAUAAGCC (ssRNA) [hb NRE2 -2C RNA]
- binding result (Pum PUM-HD WT (EMSA) [2]): binds

Molecule: UAUUUGUAAUUUAU (ssRNA) [CycB NRE RNA 14-nt (crystal)]
- binding result [11]: binds

Molecule: UAUUUGUAAUUUAUAUC (ssRNA) [CycB NRE RNA (EMSA)]
- binding result (Pum PUM-HD WT (EMSA) [12]): no binding
- Kd [10]: 12 nM

Molecule: GAAUUGUAUAUAUUCG (ssRNA) [hb NRE1 RNA]
- binding result (Pum PUM-HD WT (EMSA) [4]): no binding
- binding result [5]: binds
